Laboratory results: patent US20090181034A1 (AGENSYS, published 2009)

T1: murine PSCA (mouse, UniProt P57096 21-95)
T1 construct: whole, on cells; also called mouse PSCA; Mouse-PSCA
T1 sequence (looked up): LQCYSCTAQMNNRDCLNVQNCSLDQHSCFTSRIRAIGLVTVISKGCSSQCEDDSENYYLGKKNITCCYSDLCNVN


Key:
[1] = target: T2, PSCA (prostate stem cell antigen), human (human, UniProt O43653 12-83); experiment: FACS titration on SW780 cells, anti-hIgG-PE, Prism sigmoidal dose-response fit
T2 construct: Tested on cells: SW780, LAPC9AI, PC3-PSCA, B300.19-PSCA, prostate cancer xenograft cells and tumour tissue; also called PSCA v.1; PSCA variant 1
Description: A panel of seven (7) anti-human PSCA antibodies was tested for their binding affinity to PSCA on SW780 cells, a human bladder cancer cell line expressing high level of PSCA. […] At the end of the incubation, cells were washed and incubated with anti-hIgG-PE detection antibody for 45 min at 4° C. After washing the unbound detection antibodies, the cells were analyzed by FACS; MFI values of each point were obtained using CellQuest Pro software and were used for affinity calculation using Graphpad Prism software: Sigmoidal Dose-Response (variable slope) equation (Table VII and Table VIII).

murine PSCA = target: T1, murine PSCA; experiment: FACS on 293T cells expressing murine PSCA, anti-hIgG-PE
Description: The cells were incubated with the respective antibodies using the following protocol. […] Specific recognition was determined using anti-hIgG-PE secondary detection antibody.

Binder	Kd [1]	binding result (murine PSCA)
Ha1-5.99 (antibody, IgG2, V domains shown, Fully human MAb from human gamma 2 producing XenoMouse (IgG2, kappa), hybridoma ATCC PTA-6703; Ha1-5.99.1 (subclone label) is treated as the same antibody; also called HA1-5.99.1; Ha1-5.99.1) VH: QVHLQQWGAGLLKPSETLSLTCAVYGGSFSGYYWSWIRQPPGKGLEWIGEINHSGSTSYKPSLKSRVTVSVDTSKNQFSLKLSYVTAADTAVYYCARDRGDYGDFLFDYWGQGTLVTVSS VL: SPGERATLSCRASQSIGSTYLAWYQQKPGQAPRLLIYGASSRATGIPERFSGSGSGTDFTLTISGLEPEDFAVFYCQQCGSSPPTFGQGTKVEIKR	0.28 nM	
Ha1-4.117 (antibody, V domains shown, Fully human MAb from human gamma 1 producing XenoMouse (IgG1, kappa), hybridoma ATCC PTA-6699; A fluorescein conjugate was used for IHC) VH: QVQLQESGPGLVKPSQTLSLTCTVSGGSISSGGYYWIWIRQHPGKGLEWIGYIYYNGNTYYNPSLKSRVTMSVDTSKNQFSLKLSSVTAADTAVYYCARDGITMIRGYYYGMDVWGQGTTVTVSS VL: QLTQSPSSVSASVGDRVTITCRASRGISSWLAWYQQKPGKAPKLLIYTASSLQSGVPSRFSGSGSGTDFTLTISSLQPEDFATYYCQQAYSFPRTFGQGTKVEIKR	0.32 nM	binds
Ha1-1.16 (antibody, IgG1, V domains shown, Fully human MAb from human gamma 1 producing XenoMouse immunized with PSCA-GST (IgG1, kappa), hybridoma ATCC PTA-6698; Ha1-1.16.1 (subclone label) is treated as the same antibody; also called Ha1-1.16.1) VH: QVQLQQSGPGLVKPSQTLSLTCAISGDSVSSNSAAWNWIRQSPSRGLEWLGRTYYRSKWYNGYAVSVKSRMTINPDTSKNQFSLQLNSVTPEDTAVYYCARERLGELYGMDVWGQGTTVTVSS VL: QLTQSPDSLAVSLGERATINCKSSQNILYRSSKKNHLVWYQQKPGQPPKLLIYWASTRESGVPARFSGSGSGTDFTLTISTLQAEDVAVYYCQQYYSTPPTFGQGTRLEIKR	6.91 nM	no binding
Ha1-4.37 (antibody, IgG1, V domains shown, Fully human MAb from human gamma 1 producing XenoMouse (IgG1, kappa), hybridoma ATCC PTA-6702) VH: PGALQESGPGLVRPSQTLSLTCTVSGGSISSGGTYYWIWIRQHPGKGLEWIGYIYYSGSTYYNPSLKSRVTISVDTSKNQFSLKLSSVTAADTAVYYCARDGITMVRGISGGMDVWGQGTTVTVSS VL: ASVGDRVTITCRASQSISSHLNWYQQKPGKAPKLLIYAASSLQSGVPSRFSGSGSGTDFTLSISSLQPEDFATYFCQQSYSIPRTFGQGTKVEITR	0.23 nM	
